Laboratory results as given in patent publication US20230201365A1, “MODIFIED CD20 ANTIBODIES AND USES THEREOF” (Bright Peak Therapeutics AG, priority 2021, published 2023).

Experiments:
[1] = target: T1, hu CD20 (Homo sapiens, UniProt P11836); assay: CD20 binding ELISA
T1 sequence (P11836 1-297): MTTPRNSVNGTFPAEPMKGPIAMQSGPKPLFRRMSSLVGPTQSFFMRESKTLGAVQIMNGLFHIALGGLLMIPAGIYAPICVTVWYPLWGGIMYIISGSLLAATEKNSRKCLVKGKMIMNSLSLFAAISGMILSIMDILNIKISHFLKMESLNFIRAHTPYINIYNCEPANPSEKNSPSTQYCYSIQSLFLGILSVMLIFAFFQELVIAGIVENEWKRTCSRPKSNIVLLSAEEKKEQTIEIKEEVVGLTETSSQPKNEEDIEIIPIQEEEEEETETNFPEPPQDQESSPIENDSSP
Procedure: The interaction of the unmodified and of conjugated anti-CD20 antibodies with CD20 were measured by ELISA assay. […] Plates were washed four times with 100 μl of PBS-0.02% Tween20. and blocked with 25 μl of PBS-0.02% Tween20-1% BSA at 37° C. with shaking at 600 RPM, for 1 h. Plates were then washed four times with 100 μl of PBS-0.02% Tween20. […] Plates were then washed four times with 100 μl of PBS-0.02% Tween20. 25 ul of Streptavidin-Horseradish peroxidase (#RABHRP3, Merck, Buchs, Switzerland) diluted at 1:500 into PBS-0.02% Tween20-0.1% BSA were added to each well and incubated at room temperature for 30 min. Plates were then washed four times with 100 μl of PBS-0.02% Tween20. […] ELISA signal is then measured at 450 nm on an ENSPIRE® plate reader from Perkin Elmer (Schwerzenbach, Switzerland).

[2] = target: T2, Human FcRn (Homo sapiens, UniProt P55899); assay: FcRn binding AlphaLISA; settings: hu FcRN binding aLISA
T2 construct: purchased PerkinElmer AL3095C
Procedure: Human IgG Conjugated Acceptor Beads (2×) and Streptavidin (SA) Donor Beads were diluted to reach final concentrations of 5 μg/ml.
To wells in the assay plates, 10 ul of diluted antibodies, 10 ul of diluted FcRn, 20 ul of human IgG conjugated Acceptor beads, and SA-Donor beads were added.

[3] = target: T3, hu FcγRI (CD64) (Homo sapiens, UniProt P12314); assay: Fc gamma receptor binding ELISA
T3 construct: purchased R&D Systems 1257-FC-050
Procedure: (§1) To analyze Fc Receptor gamma binding test molecules were diluted to 2.5 ug/ml in PBS and plates were coated overnight at 4° C. The next day the assay plates were washed four times with 100 ul of wash buffer: PBS+0.02% Tween 20 and blocked with PBS+1% BSA, for one hour at 37° C., with shaking at 600 RPM. The blocked plates were then washed four times with 100 ul wash buffer. Diluted FcRgamma (Reagents listed, below) was freshly diluted in wash buffer. Plates were then incubated with 25 ul of diluted Fc for two hours with shaking at 600 RPMs, then washed with 100 ul wash buffer, four times. The wells were then incubated with 25 ul of either 1:500 diluted streptavidin-Horseradish peroxidase (HRP) for detection of human FcgR or 1:500 diluted Anti-HIS tag antibody-HRP in wash buffer. The HPR detection molecules were incubated in the wells at room temperature for one hour with shaking at 600 RPMs. Plate wells were washed with 100 ul of wash buffer, four times. Plates were detected using the chromogenic HRP substrate 3,3′,5,5;-tetramethylbenzidine (TMB). Samples were read using a spectrophotometer plate reader with OD set to 450 nm.

[4] = target: T4, hu FcγRIII (CD16a) (Homo sapiens, UniProt P08637); assay: Fc gamma receptor binding ELISA
T4 construct: purchased R&D Systems 4325-FC-050
Procedure: as §1

[5] = target: T5, hu FcγRIIb (CD32b) (Homo sapiens, UniProt P31994); assay: Fc gamma receptor binding ELISA
T5 construct: Avi-tag; purchased R&D Systems AVI1875-050
T5 sequence (P31994 43-310): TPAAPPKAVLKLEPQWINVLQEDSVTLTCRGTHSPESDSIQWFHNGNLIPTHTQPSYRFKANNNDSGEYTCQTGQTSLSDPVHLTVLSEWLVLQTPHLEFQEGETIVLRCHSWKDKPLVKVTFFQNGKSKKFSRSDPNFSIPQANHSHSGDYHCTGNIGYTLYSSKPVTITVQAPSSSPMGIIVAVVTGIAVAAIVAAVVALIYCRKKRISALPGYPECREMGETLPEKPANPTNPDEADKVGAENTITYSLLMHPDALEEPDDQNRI
Procedure: as §1

[6] = target: T6, mu FcγRI (CD64) (Mus musculus, UniProt P26151); assay: Fc gamma receptor binding ELISA
T6 construct: purchased R&D Systems 2074-FC-050
T6 sequence (P26151 25-404): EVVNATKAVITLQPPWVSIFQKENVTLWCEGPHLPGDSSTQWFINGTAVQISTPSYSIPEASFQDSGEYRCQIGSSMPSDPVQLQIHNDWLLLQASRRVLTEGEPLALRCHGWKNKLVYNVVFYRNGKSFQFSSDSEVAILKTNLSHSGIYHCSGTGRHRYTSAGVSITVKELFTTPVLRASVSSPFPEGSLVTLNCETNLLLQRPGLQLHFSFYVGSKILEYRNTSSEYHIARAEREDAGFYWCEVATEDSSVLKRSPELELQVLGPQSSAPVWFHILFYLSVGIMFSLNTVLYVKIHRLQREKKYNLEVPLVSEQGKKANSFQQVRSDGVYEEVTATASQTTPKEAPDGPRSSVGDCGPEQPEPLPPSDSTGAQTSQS
Procedure: as §1

[7] = target: T7, mu FcγRIII (CD16) (Mus musculus, UniProt P08508); assay: Fc gamma receptor binding ELISA
T7 construct: purchased R&D Systems 1960-FC-050
T7 sequence (P08508 31-261): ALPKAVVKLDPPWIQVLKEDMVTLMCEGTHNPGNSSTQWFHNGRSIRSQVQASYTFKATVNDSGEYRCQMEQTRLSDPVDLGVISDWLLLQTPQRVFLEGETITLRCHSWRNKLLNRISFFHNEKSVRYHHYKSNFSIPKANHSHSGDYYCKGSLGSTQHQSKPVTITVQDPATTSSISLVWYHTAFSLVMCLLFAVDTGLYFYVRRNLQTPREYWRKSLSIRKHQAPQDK
Procedure: as §1

[8] = target: T8, mu FcγRIV (CD16-2) (Mus musculus, UniProt A0A0B4J1G0); assay: Fc gamma receptor binding ELISA; settings: mu FcγRIV (CD16-2) ELISA
T8 construct: purchased R&D Systems 1974-CD-050
T8 sequence (A0A0B4J1G0 21-249): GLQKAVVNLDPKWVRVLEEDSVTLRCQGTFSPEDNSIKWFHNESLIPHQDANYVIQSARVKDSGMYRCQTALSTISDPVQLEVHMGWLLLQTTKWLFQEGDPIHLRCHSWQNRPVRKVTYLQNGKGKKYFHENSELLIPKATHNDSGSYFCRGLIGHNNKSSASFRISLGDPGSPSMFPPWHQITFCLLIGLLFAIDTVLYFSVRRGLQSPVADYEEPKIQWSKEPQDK
Procedure: as §1

[9] = test system: Raji cells; assay: Antibody-dependent cell-mediated cytotoxicity (ADCC) bioassay; format: cell-based, human; settings: 25:1 PBMC:Raji, FIG. 6
Procedure: To determine the effectiveness of antiCD20 IL-2 immunoconjugates in activating immune cell function, an ADCC assay was employed. Human peripheral blood mononuclear cells (hPBMC) and target cells (Raji cells expressing HiBiT) were purchased from Promega as a kit (PBMC ADCC Bioassay Kit Raji, # CS3055A17). […] Once the cells recovered cells were counted. Raji cells were suspended at a concentration of 2×10^5 per ml, and PBMCs were suspended at 5×10^6 per ml. The killing assay was conducted in a 96 well U-bottom plate. Cells were seeded at a ratio of 25:1 Effector cell (PBMC):antiCD20 Target cell (Raji). Plates were incubated for 24 hours at 37 C in 5% CO2. Cell mixtures were treated with serial dilutions of immunocytokines to induce ADCC and placed back in the incubator for an additional 24 hours. Tissue culture supernatants from wells were assayed using Nano-Glo® HiBiT Extracellular assay detection kit.

[10] = test system: B cells; assay: B cell depletion in hCD20 transgenic C57BL/6 mice; format: in vivo; settings: 5 mg/kg single intraperitoneal injection on Day 0, FIG. 7A
Procedure: Animal Groupings and administration: 9 animals were randomly enrolled into three study groups based on the body weight 5 days before administration (day −5). Each group consists of 3 mice. Single doses were administered 5 day post grouping (Day 0).
Sample collection: 100 μL whole blood were collected with anticoagulant (DETA-2K) for flow cytometry. Collection time points: Day −5, Day 6, Day 9, Day 14, and Day 21.
Flow cytometry: Preparation of single cell suspensions: For the treatment of spleen samples, the spleen was transferred to a 35 mm culture dish, and then ground with a sterile syringe tail. The cells were washed and centrifuged at 500 g for 5 min at 4° C. The cell pellet was resuspended with 2 ml of red blood cell lysis buffer and incubated for 5-8 min at room temperature. A volume 10 mL of PBS was added to the cell suspension to stop the lysing, and centrifuged at 500 g for 5 min at 4° C. The cells were counted using a blood cell counting chamber. For the treatment of the blood samples, 100 μL of the blood sample was transferred into a 1.5 mL EP tube. To this, 1.4 mL of red blood cell lysis buffer is added, and mixed by inversion. The lysis is carried out for 5-8 min at room temperature. The lysed blood sample is centrifuge at 500 g for 5 min at 4° C. The resultant cell pellet is resuspended in PBS to the required volume for flow cytometry.
The flow cytometry protocol is as follows. […]

T2 sequence (P55899 24-297 limits assumed): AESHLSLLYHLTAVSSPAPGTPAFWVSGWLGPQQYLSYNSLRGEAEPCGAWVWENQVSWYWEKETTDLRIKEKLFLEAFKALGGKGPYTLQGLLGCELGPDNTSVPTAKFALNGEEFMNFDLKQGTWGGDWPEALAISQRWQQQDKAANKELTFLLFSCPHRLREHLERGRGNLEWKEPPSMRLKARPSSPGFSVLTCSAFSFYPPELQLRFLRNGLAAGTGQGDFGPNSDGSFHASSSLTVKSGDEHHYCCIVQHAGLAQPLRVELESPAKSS
T2 sequence (P61769 21-119 partner): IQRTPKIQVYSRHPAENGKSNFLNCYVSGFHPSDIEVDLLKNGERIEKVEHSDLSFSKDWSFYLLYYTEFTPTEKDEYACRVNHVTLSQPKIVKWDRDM
T4 sequence (P08637 17-254): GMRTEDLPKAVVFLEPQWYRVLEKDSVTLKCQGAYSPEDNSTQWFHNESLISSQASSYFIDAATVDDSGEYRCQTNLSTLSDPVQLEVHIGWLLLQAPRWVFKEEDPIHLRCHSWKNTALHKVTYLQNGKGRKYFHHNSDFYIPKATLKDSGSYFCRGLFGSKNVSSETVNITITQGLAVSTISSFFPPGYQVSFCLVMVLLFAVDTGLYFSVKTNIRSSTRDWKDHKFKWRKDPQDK
T3 sequence (P12314 16-374): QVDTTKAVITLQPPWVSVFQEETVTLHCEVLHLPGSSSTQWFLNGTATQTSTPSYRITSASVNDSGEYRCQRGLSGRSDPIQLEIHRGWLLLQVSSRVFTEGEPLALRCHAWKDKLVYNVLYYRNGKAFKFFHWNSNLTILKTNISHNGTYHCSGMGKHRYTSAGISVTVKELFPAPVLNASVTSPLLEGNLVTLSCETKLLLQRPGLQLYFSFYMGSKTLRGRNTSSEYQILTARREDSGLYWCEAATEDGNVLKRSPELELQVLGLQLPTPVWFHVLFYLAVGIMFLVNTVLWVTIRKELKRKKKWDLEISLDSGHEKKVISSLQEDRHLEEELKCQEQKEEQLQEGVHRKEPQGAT

Anti-CD20 Antibody: parent anti-CD20 antibody biosimilar Rituximab, unconjugated
EC50 [1]: 0.08 nM | EC50 [2]: 4 nM | EC50 [3]: 0.23 nM | EC50 [4]: 185 nM | EC50 [5]: 880 nM | EC50 [6]: 35 nM | EC50 [7]: 133 nM | EC50 [8]: 20 nM | ADCC-targeted cell killing of Raji cells [9]: Less cell killing overall | depletion of B cells [10]: substantial ability to deplete B cells
